Assay results taken from patent US7125979.
Non-standard residues stand in square brackets, D forms with d. No end group written: not given here.

Experiments:
Assay in all cases: cell-based or functional assay
NPY Y2 receptor (mouse) = NPY Y2 receptor (mouse) (UniProt P97295)
[1] = molecular target: µ-opioid receptor (mouse) (UniProt P42866)
MC3-R (mouse) = MC3-R (mouse) (UniProt P33033)
Chain of MC3-R (mouse) (P33033 whole entry): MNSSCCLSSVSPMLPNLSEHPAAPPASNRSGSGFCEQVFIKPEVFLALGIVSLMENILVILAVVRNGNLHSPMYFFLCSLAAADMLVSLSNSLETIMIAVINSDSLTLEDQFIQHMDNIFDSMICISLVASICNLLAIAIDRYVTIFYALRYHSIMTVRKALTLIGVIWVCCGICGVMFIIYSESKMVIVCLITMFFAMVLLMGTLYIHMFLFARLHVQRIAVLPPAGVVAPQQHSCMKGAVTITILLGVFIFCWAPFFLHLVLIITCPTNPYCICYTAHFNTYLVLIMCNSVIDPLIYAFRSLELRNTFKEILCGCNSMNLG

Chain of NPY Y2 receptor (mouse) (P97295 whole entry): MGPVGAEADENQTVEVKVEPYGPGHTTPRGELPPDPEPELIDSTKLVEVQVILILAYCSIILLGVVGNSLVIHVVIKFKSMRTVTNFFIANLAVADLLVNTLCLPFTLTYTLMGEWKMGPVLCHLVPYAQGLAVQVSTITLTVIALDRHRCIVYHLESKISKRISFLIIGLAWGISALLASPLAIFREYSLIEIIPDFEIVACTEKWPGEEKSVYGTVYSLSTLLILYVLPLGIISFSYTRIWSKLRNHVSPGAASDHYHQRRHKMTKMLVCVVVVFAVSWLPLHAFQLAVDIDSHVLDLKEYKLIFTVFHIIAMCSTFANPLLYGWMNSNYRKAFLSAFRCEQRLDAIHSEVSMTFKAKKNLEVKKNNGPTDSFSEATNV
Chain of µ-opioid receptor (mouse) (P42866 whole entry): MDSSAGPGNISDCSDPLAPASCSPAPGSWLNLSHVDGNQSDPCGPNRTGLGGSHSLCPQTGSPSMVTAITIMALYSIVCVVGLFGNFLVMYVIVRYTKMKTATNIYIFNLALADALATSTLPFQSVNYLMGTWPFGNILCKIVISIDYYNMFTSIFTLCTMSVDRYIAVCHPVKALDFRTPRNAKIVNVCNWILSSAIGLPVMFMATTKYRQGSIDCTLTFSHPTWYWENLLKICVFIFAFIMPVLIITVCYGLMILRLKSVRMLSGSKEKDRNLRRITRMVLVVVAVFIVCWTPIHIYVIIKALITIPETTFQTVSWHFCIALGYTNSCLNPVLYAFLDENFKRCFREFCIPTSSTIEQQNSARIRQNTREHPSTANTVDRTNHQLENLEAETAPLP

Work on “N-acetyl (Leu^28, Leu^31) NPY (24-36) (from UniProt P01303 52-64) (peptide)” yielded a reduction of the frequency of inhibitory postsynaptic currents (IPSCs) onto POMC neurons (NPY Y2 receptor (mouse)) of 44.4%.

In the case of “neuropeptide Y (from UniProt P01303 29-64)”, the decrease of the frequency of GABAergic IPSCs in POMC cells (100 nM NPY) (NPY Y2 receptor (mouse)) is reported as 55%.

With YGGFM (peptide, UniProt P01210 100-104, looked up) [met-enkephalin] the hyperpolarization of the membrane potential of POMC cells (whole cell recording, 30 µM Met-Enk) [1] was 10 to 20 mV.

For YVMGHFR[dW]DRFG (peptide, UniProt P01189 77-88, looked up, ends and bridges not checked) [D-Trp^8-γMSH], the frequency of GABAergic IPSCs recorded from POMC neurons (7 nM) (MC3-R (mouse)) was 280% and the hyperpolarization of POMC neurons (7 nM) (MC3-R (mouse)) was -5.5 mV.
